Here are results for 1 molecule from US20150071855A1 (LONDON HEALTH SCIENCES CENTRE RESEARCHING, published 2015).

The experiment deals with T1, recombinant GST-EGFL7 protein (UniProt Q9UHF1 24-273).
T1 construct: Expressed in Sf21 insect cells by baculovirus and purified on glutathione-agarose; The sense primer encodes MRGSQEV, which fits human EGFL7; also called purified EGFL7 protein; recombinant EGFL7; not shown: glutathione-S-transferase (GST) tag from the pDEST20 plasmid (Invitrogen); TEV site/linker region carried over from pENTR/TEV/D-TOPO
T1 sequence (looked up): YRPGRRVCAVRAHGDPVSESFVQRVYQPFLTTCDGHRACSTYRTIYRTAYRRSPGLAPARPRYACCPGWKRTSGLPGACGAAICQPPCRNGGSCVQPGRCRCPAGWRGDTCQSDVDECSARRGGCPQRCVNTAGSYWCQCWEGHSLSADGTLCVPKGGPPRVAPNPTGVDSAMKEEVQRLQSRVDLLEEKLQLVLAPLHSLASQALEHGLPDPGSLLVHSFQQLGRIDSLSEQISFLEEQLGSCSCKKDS
The experiment is described as follows: SPR imaging (GWC); peptide immobilised on gold spots, purified EGFL7 protein in solution; fit with 'association then dissociation' in GraphPad Prism. The method, then: Peptides were immobilized onto gold spots using standard protocols from the GWC manual. Peptides were then exposed to 500 μL of purified EGFL7 protein. The % change in reflectivity (% R) for each of the spots containing the peptides was collected using V++ Precision Digital Imaging Systems, version 5.0 software and the dissociation constants (KD) were calculated using the ‘association then dissociation’ equation in GraphPad Prism, version 5.0.

B1: GSLLVHSFQQLG (peptide)
peptide: GSLLVHSFQQLG
notes: Immobilised on gold spots for the SPR imaging study; also called LCE71; LCE77
Regarding B1, the Kd worked out at 14.7 nM.
